Test results published in paper PMC11775523.
pKd: −log10 of the molar value.

System: Exo1 (exonuclease)
Experiment: ITC
Conditions: ITC: 67 mM glycine-KOH, 6.7 mM MgCl2, 1 mM TCEP, 37 C (Methods: 100 uM aptamer into 10 uM Exo1; Results text: 10 uM into 1 uM). Cells: Dulbecco's PBS, 5 mM …

Sequence	pKd	pKd (5'-terminal GalNAc-modified base (N1, printed X), position 12 is also printed X, but the text describes only 5' modification, so likely a misprint for T)
ATCTAACTGCTGCGCCGCCGGGAAAATACTGTACGGTTAGA [Sgc8 (S01)]	9.00	
NATCTAACTGCNGCGCCGCCGGGAAAATACTGTACGGTTAGAT [GS01 (5' GalN-Sgc8)]		3.18
